# According to US6475717:
# T1: human IL-7 (human) (UniProt P13232)
# T1 sequence (looked up): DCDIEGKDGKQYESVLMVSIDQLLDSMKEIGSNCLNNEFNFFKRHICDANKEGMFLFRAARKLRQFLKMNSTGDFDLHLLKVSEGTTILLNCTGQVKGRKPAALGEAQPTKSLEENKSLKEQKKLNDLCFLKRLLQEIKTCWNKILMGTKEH
# T2: murine recombinant IL-4 (Immunex, Lot 2871-023) (murine) (UniProt P07750)
# T2 sequence (looked up): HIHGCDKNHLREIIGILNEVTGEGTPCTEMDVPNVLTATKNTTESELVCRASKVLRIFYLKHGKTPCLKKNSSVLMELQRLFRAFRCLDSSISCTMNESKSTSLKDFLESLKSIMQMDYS
# T3: human IL-1-alpha (human) (UniProt P01583)
# T3 sequence (looked up): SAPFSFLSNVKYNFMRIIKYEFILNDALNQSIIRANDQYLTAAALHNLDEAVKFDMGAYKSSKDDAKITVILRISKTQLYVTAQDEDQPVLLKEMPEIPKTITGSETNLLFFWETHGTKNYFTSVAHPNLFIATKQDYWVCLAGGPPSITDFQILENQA
# T4: murine IL-1-beta (murine) (UniProt P10749)
# T4 sequence (looked up): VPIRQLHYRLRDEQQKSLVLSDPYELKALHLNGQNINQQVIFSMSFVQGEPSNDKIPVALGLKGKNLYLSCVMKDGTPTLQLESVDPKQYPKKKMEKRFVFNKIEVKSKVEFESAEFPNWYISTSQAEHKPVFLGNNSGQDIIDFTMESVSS
# T5: murine IL-1-alpha (murine) (UniProt P01582)
# T5 sequence (looked up): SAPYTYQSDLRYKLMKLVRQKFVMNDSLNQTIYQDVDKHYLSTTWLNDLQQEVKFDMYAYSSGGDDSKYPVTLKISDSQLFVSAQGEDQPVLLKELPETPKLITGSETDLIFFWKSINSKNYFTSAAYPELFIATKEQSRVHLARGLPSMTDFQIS
# What was measured:
# human IL-7 (human) = molecular target: T1, human IL-7 (human); experiment: control in IL-4R/Fc sandwich ELISA; hu IL-7 at 50 ng/ml
# [1] = molecular target: T2, murine recombinant IL-4 (Immunex, Lot 2871-023) (murine); experiment: control in IL-4R/Fc sandwich ELISA; mu IL-4 at 50 ng/ml
# human IL-2 (human) = human IL-2 (human) (UniProt P60568); experiment: control in IL-4R/Fc sandwich ELISA; hu IL-2 at 5000 IU/ml
# Chain of UniProt P60568 (P60568 21-153 limits assumed): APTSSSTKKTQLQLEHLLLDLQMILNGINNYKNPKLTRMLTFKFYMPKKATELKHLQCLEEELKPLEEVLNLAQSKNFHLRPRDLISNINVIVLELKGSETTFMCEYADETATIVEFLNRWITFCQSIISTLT
# human IL-6 (human) = human IL-6 (human) (UniProt P05231); experiment: control in IL-4R/Fc sandwich ELISA; hu IL-6 at 5000 IU/ml
# Chain of UniProt P05231 (P05231 30-212 limits assumed): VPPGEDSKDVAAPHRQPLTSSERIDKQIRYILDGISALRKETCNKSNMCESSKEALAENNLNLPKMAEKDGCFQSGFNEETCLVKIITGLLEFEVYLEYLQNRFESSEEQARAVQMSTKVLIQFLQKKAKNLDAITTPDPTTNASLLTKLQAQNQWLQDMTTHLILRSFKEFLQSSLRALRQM
# human IL-1-alpha (human) = molecular target: T3, human IL-1-alpha (human); experiment: control in IL-4R/Fc sandwich ELISA; hu IL-1 α at 7.5 ng/ml
# human IL-1-beta (human) = human IL-1-beta (human) (UniProt P01584); experiment: control in IL-4R/Fc sandwich ELISA; hu IL-1 β at 16.6 ng/ml
# Chain of UniProt P01584 (P01584 117-269 limits assumed): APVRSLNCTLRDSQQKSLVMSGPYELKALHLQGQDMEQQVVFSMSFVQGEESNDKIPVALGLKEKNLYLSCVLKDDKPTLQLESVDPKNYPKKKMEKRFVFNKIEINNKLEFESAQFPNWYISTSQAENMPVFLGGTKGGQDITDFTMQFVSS
# human TNF-alpha (human) [2] = molecular target: human TNF-alpha (human) (UniProt P01375); experiment: control in IL-4R/Fc sandwich ELISA; hu-TNF α (Immunex) at 50 ng/ml
# Chain of UniProt P01375 (P01375 77-233 limits assumed): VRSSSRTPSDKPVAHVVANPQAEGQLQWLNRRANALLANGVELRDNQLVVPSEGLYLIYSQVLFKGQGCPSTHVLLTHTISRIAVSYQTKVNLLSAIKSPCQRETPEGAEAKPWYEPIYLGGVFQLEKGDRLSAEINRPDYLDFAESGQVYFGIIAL
# human TNF-alpha (human) [3] = molecular target: human TNF-alpha (human) (UniProt P01375); experiment: control in IL-4R/Fc sandwich ELISA; hu-TNF α as printed (Genzyme B1089) at 50 ng/ml
# [4] = molecular target: human recombinant IL-4 (Immunex, Lot 1898-022) (human) (UniProt P05112); experiment: control in mu IL-4R/Fc sandwich ELISA; hu IL-4 at 50 ng/ml
# Chain of UniProt P05112 (P05112 25-153 limits assumed): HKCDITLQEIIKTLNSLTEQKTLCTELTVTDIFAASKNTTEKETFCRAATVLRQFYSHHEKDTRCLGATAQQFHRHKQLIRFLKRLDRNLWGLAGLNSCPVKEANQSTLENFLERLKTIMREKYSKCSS
# [5] = molecular target: T4, murine IL-1-beta (murine); experiment: control in mu IL-4R/Fc sandwich ELISA; mu IL-1 β at 10 ng/ml
# [6] = molecular target: murine TNF-alpha (murine) (UniProt P06804); experiment: control in mu IL-4R/Fc sandwich ELISA; mu-TNF α at 100 ng/ml
# Chain of UniProt P06804 (P06804 80-235 limits assumed): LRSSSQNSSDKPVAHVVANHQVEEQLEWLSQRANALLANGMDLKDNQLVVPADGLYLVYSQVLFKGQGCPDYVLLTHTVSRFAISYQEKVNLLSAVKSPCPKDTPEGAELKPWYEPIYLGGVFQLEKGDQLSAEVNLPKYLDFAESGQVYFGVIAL
# [7] = molecular target: T5, murine IL-1-alpha (murine); experiment: control in mu IL-4R/Fc sandwich ELISA; mu IL-1 α at 100 IU/ml
concentration determined from the extinction (human IL-7 (human)) [pg/mL],concentration determined from the extinction [1] [pg/mL],concentration determined from the extinction (human IL-2 (human)) [pg/mL],concentration determined from the extinction (human IL-6 (human)) [pg/mL],concentration determined from the extinction (human IL-1-alpha (human)) [pg/mL],concentration determined from the extinction (human IL-1-beta (human)) [pg/mL],concentration determined from the extinction (human TNF-alpha (human) [2]) [pg/mL],concentration determined from the extinction (human TNF-alpha (human) [3]) [pg/mL],concentration determined from the extinction [4] [pg/mL],concentration determined from the extinction [5] [pg/mL],concentration determined from the extinction [6] [pg/mL],concentration determined from the extinction [7] [pg/mL],Molecule
< 31,< 31,< 31,< 31,< 31,< 31,< 31,< 31,–,–,–,–,human IL-4 receptor/immunoglobulin Fc fusion protein (from UniProt P24394 26-232)
–,–,–,–,–,–,–,–,< 31,< 31,< 31,< 31,"murine IL-4 receptor/immunoglobulin Fc fusion protein (Fc fusion, UniProt P16382 26-233, looked up, not shown: small tags and cut ends) IKVLGEPTCFSDYIRTSTCEWFLDSAVDCSSQLCLHYRLMFFEFSENLTCIPRNSASTVCVCHMEMNRPVQSDRYQMELWAEHRQLWQGSFSPSGNVKPLAPDNLTLHTNVSDEWLLTWNNLYPSNNLLYKDLISMVNISREDNPAEFIVYNVTYKEPRLSFPINILMSGVYYTARVRVRSQILTGTWSEWSPSITWYNHFQLPLIQR"
